Experimental data from patent publication US20250042994A1 (HAINAN SIMCERE ZAIMING PHARMACEUTICAL, published 2025).

T1: human CD19 exon1-3-His tag protein (human, UniProt P15391 20-186, limits assumed)
T1 construct: membrane-distal part of the extracellular region, made in HEK293E cells; not shown: His tag
T1 sequence (looked up): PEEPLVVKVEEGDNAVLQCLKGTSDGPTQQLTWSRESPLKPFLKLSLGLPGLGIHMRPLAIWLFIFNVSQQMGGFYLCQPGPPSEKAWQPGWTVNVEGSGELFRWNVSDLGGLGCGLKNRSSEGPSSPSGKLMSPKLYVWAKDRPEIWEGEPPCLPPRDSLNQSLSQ

T2: Human CD19-his protein (human, UniProt P15391 20-291)
T2 construct: bought protein; also called recombinant human CD19-His; CD19 full-length protein; not shown: His tag
T2 sequence (looked up): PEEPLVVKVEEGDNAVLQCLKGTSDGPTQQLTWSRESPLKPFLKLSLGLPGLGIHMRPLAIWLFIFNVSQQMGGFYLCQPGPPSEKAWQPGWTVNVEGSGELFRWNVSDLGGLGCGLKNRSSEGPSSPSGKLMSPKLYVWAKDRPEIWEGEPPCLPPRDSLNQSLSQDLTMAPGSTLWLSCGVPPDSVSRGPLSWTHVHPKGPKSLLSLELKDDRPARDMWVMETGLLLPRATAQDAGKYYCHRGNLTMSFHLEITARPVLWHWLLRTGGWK

T3: murine CD19 protein (murine, UniProt P25918 17-287, limits assumed)
T3 construct: bought protein; also called commercial murine CD19
T3 sequence (looked up): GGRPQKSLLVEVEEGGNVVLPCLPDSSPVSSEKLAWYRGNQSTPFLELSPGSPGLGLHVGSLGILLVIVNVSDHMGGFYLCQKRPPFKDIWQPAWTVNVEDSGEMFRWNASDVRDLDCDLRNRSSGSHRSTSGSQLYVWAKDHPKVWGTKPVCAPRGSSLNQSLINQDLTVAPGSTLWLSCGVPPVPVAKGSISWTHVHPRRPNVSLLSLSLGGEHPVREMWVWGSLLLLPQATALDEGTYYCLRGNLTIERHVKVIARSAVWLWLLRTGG

T4: Human CD19-his protein (human, UniProt P15391 20-291)
T4 construct: bought protein; also called human CD19 protein; recombinant human CD19-His; not shown: His tag
T4 sequence (looked up): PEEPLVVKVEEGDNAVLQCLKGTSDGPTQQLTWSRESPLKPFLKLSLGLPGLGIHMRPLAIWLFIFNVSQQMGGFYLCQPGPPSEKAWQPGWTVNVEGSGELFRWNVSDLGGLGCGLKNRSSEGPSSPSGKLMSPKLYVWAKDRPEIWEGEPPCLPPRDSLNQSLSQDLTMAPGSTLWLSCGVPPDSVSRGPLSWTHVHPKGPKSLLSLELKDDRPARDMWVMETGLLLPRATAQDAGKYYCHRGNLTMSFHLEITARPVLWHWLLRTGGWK

T5: human CD19 on CHO-K1-human CD19 cells (human, UniProt P15391 20-556)
T5 construct: whole, on cells; also called CHO-K1-human CD19-2C8
T5 sequence (looked up): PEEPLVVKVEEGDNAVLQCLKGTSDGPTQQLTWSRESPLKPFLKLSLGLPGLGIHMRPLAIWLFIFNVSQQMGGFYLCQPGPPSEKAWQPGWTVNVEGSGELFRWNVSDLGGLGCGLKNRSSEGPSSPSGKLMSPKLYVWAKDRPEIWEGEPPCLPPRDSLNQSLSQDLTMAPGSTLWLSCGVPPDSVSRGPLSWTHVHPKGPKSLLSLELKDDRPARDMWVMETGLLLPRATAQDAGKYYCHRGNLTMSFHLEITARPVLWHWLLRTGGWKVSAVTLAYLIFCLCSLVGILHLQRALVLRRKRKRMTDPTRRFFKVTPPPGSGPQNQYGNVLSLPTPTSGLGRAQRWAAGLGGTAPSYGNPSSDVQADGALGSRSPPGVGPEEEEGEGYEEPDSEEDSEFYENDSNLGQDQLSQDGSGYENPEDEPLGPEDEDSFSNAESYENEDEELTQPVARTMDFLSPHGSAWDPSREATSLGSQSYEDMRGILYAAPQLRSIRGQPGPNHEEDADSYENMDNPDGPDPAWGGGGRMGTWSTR

T6: human CD19 on Raji cells (human, UniProt P15391 20-556)
T6 construct: whole, on cells
T6 sequence (looked up): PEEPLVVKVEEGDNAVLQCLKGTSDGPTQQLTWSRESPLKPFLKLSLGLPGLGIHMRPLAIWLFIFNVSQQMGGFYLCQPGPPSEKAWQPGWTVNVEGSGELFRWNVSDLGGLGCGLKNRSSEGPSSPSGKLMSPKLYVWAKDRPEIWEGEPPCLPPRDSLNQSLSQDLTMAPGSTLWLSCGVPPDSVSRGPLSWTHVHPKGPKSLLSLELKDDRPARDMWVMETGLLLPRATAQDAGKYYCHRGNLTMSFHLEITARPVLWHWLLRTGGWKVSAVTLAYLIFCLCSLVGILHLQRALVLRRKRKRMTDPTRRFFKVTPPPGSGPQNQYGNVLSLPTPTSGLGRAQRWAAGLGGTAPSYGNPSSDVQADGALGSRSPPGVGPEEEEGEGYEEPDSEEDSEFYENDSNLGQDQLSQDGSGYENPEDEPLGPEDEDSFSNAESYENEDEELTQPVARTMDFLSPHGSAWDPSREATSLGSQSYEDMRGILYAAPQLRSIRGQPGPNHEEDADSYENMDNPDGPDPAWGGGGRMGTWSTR


Assays:
[1] = molecular target: T1, human CD19 exon1-3-His tag protein; assay: ELISA on coated human CD19 exon 1-3-His
Human CD19-his protein [2] = molecular target: T2, Human CD19-his protein; assay: SPR Biacore, Ab captured on Protein A, CD19-His analyte
Procedure, shortened: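 Apparent KD came from a Langmuir 1:1 fit of double-referenced sensorgrams. Recombinant human CD19-His analyte (top 200 nM, 1:1 serial dilution, 5 concentrations) flowed over Protein A-captured antibody for 240 s at 30 μl/min, then buffer for up to 600 s. Running buffer HBS-EP+ at 25 °C; regeneration with 10 mM glycine pH 1.5.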

murine CD19 protein = molecular target: T3, murine CD19 protein; assay: ELISA, coated murine CD19
Procedure, shortened: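 Plates coated overnight at 4° C with recombinant murine or monkey CD19 and blocked with 2% BSA. Chimeric antibodies, serially diluted from 100 nM, bound for 2 h at 37° C. TMB development for 10 min with OD450 read-out.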

Human CD19-his protein [3] = molecular target: T4, Human CD19-his protein; assay: ELISA, antibody at 0.10 nM
Human CD19-his protein [4] = molecular target: T4, Human CD19-his protein; assay: ELISA, antibody at 10 nM
Human CD19-his protein [5] = molecular target: T4, Human CD19-his protein; assay: ELISA, antibody at 100 nM
Human CD19-his protein [6] = molecular target: T4, Human CD19-his protein; assay: ELISA, antibody at 0.01 nM
Human CD19-his protein [7] = molecular target: T4, Human CD19-his protein; assay: ELISA, antibody at 1.00 nM
Human CD19-his protein [8] = molecular target: T4, Human CD19-his protein; assay: ELISA on coated human CD19-His
Method: (§1) Human CD19-his protein (purchased from ACROBiosystems, catalog number: CD9-H52H2) was diluted with PBS to a final concentration of 4 μg/mL, and then added to a 96-well ELISA plate at 100 μl/well. The plate was sealed with a plastic film and incubated overnight at 4° C., the plate was washed 2 times with PBS the next day, and then a blocking solution [PBS+2% (w/w) BSA] was added for blocking at room temperature for 2 h. The blocking solution was poured off, and 100 nM gradiently diluted CD19 chimeric antibody or control antibody was added at 50 μl/well. After incubation at 37° C. for 2 h, the plate was washed 3 times with PBS. […] TMB substrate was added at 50 μl/well, and incubated at room temperature for 10 min, and then a stop solution (1.0 N HCl) was added at 50 μl/well. The OD450 nm values were read by an ELISA microplate reader (Multimode Plate Reader, EnSight, purchased from Perkin Elmer).

Human CD19-his protein [9] = molecular target: T4, Human CD19-his protein; assay: ELISA, antibody at 0.0001 nM
Human CD19-his protein [10] = molecular target: T4, Human CD19-his protein; assay: ELISA, antibody at 0.001 nM
[11] = molecular target: T7, monkey CD19 on HEK293T-monkey CD19 cells (monkey); assay: FACS on HEK293T-monkey CD19 cells
T7 construct: whole, on cells
Procedure, shortened: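 Antibody binding was read as MFI by flow cytometry and EC50 was taken from curve fitting. Before that, cells at 2×10⁶ cells/ml in PBS with 2% (w/w) BSA were exposed to samples for 2 h on ice and washed. Parental HEK293T cells were tested the same way.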

monkey CD19 protein = molecular target: T8, monkey CD19 protein (monkey); assay: ELISA, coated monkey CD19 protein
T8 construct: also called monkey CD19-His protein
Method: as §1
In order to detect the species cross-binding activity of the chimeric antibodies, an ELISA plate was coated with commercial murine CD19 (ACROBiosystems, catalog number: 50510-M08H) and monkey CD19 (ACROBiosystems, catalog number: 90051-C08H), respectively, and the ELISA detection was performed according to the method in example 5.1.

[12] = molecular target: T5, human CD19 on CHO-K1-human CD19 cells; assay: FACS on CHO-K1-human CD19 cells
human CD19 on Raji cells = molecular target: T6, human CD19 on Raji cells; assay: FACS on Raji cells

Binder	binding result [1]	Kd (Human CD19-his protein [2]) [nM]	koff (Human CD19-his protein [2]) [s⁻¹]	kon (Human CD19-his protein [2]) [M⁻¹ s⁻¹]	binding result (murine CD19 protein)	OD450 (Human CD19-his protein [3])	OD450 (Human CD19-his protein [4])	OD450 (Human CD19-his protein [5])	OD450 (Human CD19-his protein [6])	OD450 (Human CD19-his protein [7])	EC50 (read off the curve) (Human CD19-his protein [8]) [nM]	OD450 (Human CD19-his protein [9])	OD450 (Human CD19-his protein [10])	other results
F3.74.4 (antibody, human IgG1, V domains shown, human-murine chimeric antibody, human IgG1) VH: QVQLQQSGAELVRPGASVTLSCKASGYTFTDYEMHWVKQTPVHGLEWIGGIAPETGLTTYNQKFEDKAILTADKSSRTAYMELRSLTSEDSAVYFCNPNNYGLWGTGTTVTVSS VL: not shown					no binding	1.02	2.64	2.96	0.21	2.32	~0.2	0.05	0.07	
F3.148.10 (antibody, human IgG1, V domains shown, human-murine chimeric antibody, human IgG1) VH: EVQLQQSGAELVRPGSSVTMSCKTSGYTFTNYGINWVKQRPGQGLEWIGYIFIGNDYTEYNEKFKGKATLTSDTSSSTAYMQLSSLTSEDSAIYFCTRFYSNYYGMDPWGQGTSVTVSS VL: not shown														Maximum mean fluorescence intensity [11]: 177; OD450 at 0.0001 nM (monkey CD19 protein): 0.06 OD450; OD450 at 0.001 nM (monkey CD19 protein): 0.06 OD450; OD450 at 0.01 nM (monkey CD19 protein): 0.07 OD450; OD450 at 0.10 nM (monkey CD19 protein): 0.13 OD450; OD450 at 1.00 nM (monkey CD19 protein): 0.78 OD450; OD450 at 10 nM (monkey CD19 protein): 1.93 OD450; OD450 at 100 nM (monkey CD19 protein): 2.47 OD450; EC50 [12]: 0.26 nM; Maximum mean fluorescence intensity [12]: 4700; EC50 (human CD19 on Raji cells): 0.28 nM; Maximum mean fluorescence intensity (human CD19 on Raji cells): 31800

Second part, led by results:

binding result [1]	Kd (Human CD19-his protein [2]) [nM]	koff (Human CD19-his protein [2]) [s⁻¹]	kon (Human CD19-his protein [2]) [M⁻¹ s⁻¹]	binding result (murine CD19 protein)	OD450 (Human CD19-his protein [3])	OD450 (Human CD19-his protein [4])	OD450 (Human CD19-his protein [5])	OD450 (Human CD19-his protein [6])	OD450 (Human CD19-his protein [7])	EC50 (read off the curve) (Human CD19-his protein [8]) [nM]	OD450 (Human CD19-his protein [9])	OD450 (Human CD19-his protein [10])	Binder	other results
no binding (tested: 100 nM)	3.49	0.000122	35100										F5.3.6 (antibody, human IgG1, V domains shown, human-murine chimeric antibody, human IgG1 constant) VH: DVQLQESGPGLVKPSQSQSLTCSVTGYSITSGYYWNWIRQFPGNKLEWMGYISYDGSNNYNPSLKNRISITRDTSKNQFFLKLNSVTTEDTVTYYCARAPLTGDRYWYFDVWGTGTTVTVSS VL: DIVLTQSPASLAVSLGQRATISCRASQSVSTSSYSYMHWYQQKPGQTPKLLIKYASNLKSGVPARFSGSGSGTDFTLNIHPVEEEDTATYYCQHSWEIPPTFGGGTKLEIK	
no binding (tested: 100 nM)	15.7	0.000402	25700										F5.2.9 (antibody, human IgG1, V domains shown, human-murine chimeric antibody, human IgG1 constant) VH: QVTLKESGPGILQPSQTLSLTCSFSGFSLSTFGLGVGWVRQPSGKGLEWLAHIWWDDDKYYNPALKSRVTVSKETSKNQVFFKIANVDTADSATYYCARLSRGLRRDVVYAMDHWGQGTSVTVSS VL: DIQMTQTTSSLSASLGDRVTISCRASQDISNYLNWYQQKPDGSVKLLISYVSRLQSGVPSRFRGSGSGTDYSLTISNLDQEDIATYFCQQGIAFPYTFGGGTKLDIK	
				no binding	1.18	2.92	2.98	0.24	2.62	~0.2	0.05	0.07	F3.109.1 (antibody, human IgG1, V domains shown, human-murine chimeric antibody, human IgG1) VH: EVQLQQSGAELVRPGSSVKMSCKTSGYTFTSYGINWVKQRPGQGLEWIGYIYIGNDYTEFNEKFKGKATLTSDTSSSTAYMQLSSLTSEDSAIYFCARFYSNSDPMDYWGHGTSVTVSS VL: not shown	
